Measurements published in PMC5722895, “The dynamic dimer structure of the chaperone Trigger Factor” (Nature Communications, 2017).
Changes are numbered by the printed parent chain. Numbers in names are those of the source.

B1: SBD (114–148/247–432) (domain or fragment, E. coli, UniProt P0A850 114-148, looked up)
chain: EVELQGLEAIEVEKPIVEVTDADVDGMLDTLRKQQELTAEFIKRFGVEDGSVEGLRAEVRKNMERELKSAIRNRVKSQAIEGLVKANDIDVPAALIDSEIDVLRRQAAQRFGGNEKQALELPRELFEEQAKRRVVVGLLLGEVIRTNELKADEERVKGLIEEMASAYEDPKEVIEFYSKNKELMDNMRNVALEEQAVEAVLAKAKVTEKETTFNELMNQQA
notes: Trigger Factor, E. coli, residues 114-148 (linker part of the SBD); Trigger Factor, E. coli, residues 247-432 (C-terminal part of the SBD); The PPD (149-246) is left out; not shown: His tag, N-terminal, cleaved
B2: PPD (149–249) (domain or fragment, E. coli, UniProt P0A850 149-249, looked up)
chain: ATWKEKDGAVEAEDRVTIDFTGSVDGEEFEGGKASDFVLAMGQGRMIPGFEDGIKGHKAGEEFTIDVTFPEEYHAENLKGKAAKFAINLKKVEERELPELT
notes: Trigger Factor, E. coli, residues 149-249; also called peptidyl-prolyl isomerase domain; not shown: His tag, N-terminal, cleaved
B3: RBD (residues 1–117) (domain or fragment, E. coli, UniProt P0A850 1-117, looked up)
chain: MQVSVETTQGLGRRVTITIAADSIETAVKSELVNVAKKVRIDGFRKGKVPMNIVAQRYGASVRQDVLGDLMSRNFIDAIIKEKINPAGAPTYVPGEYKLGEDFTYSVEFEVYPEVEL
notes: Trigger Factor, E. coli, residues 1-117 (stop codon at position 118); not shown: His tag, N-terminal, cleaved
B4: SBD–PPD (114–432) (domain or fragment, E. coli, UniProt P0A850 114-432, looked up)
chain: EVELQGLEAIEVEKPIVEVTDADVDGMLDTLRKQQATWKEKDGAVEAEDRVTIDFTGSVDGEEFEGGKASDFVLAMGQGRMIPGFEDGIKGHKAGEEFTIDVTFPEEYHAENLKGKAAKFAINLKKVEERELPELTAEFIKRFGVEDGSVEGLRAEVRKNMERELKSAIRNRVKSQAIEGLVKANDIDVPAALIDSEIDVLRRQAAQRFGGNEKQALELPRELFEEQAKRRVVVGLLLGEVIRTNELKADEERVKGLIEEMASAYEDPKEVIEFYSKNKELMDNMRNVALEEQAVEAVLAKAKVTEKETTFNELMNQQA
notes: Trigger Factor, E. coli, residues 114-432; also called bi-domain construct SBD–PPD; not shown: His tag, N-terminal, cleaved
B5: TF(3A) with mutation set mutC (M140E) (natural protein, E. coli, UniProt P0A850 1-432, looked up)
chain: MQVSVETTQGLGRRVTITIAADSIETAVKSELVNVAKKVRIDGAAAGKVPMNIVAQRYGASVRQDVLGDLMSRNFIDAIIKEKINPAGAPTYVPGEYKLGEDFTYSVEFEVYPEVELQGLEAIEVEKPIVEVTDADVDGELDTLRKQQATWKEKDGAVEAEDRVTIDFTGSVDGEEFEGGKASDFVLAMGQGRMIPGFEDGIKGHKAGEEFTIDVTFPEEYHAENLKGKAAKFAINLKKVEERELPELTAEFIKRFGVEDGSVEGLRAEVRKNMERELKSAIRNRVKSQAIEGLVKANDIDVPAALIDSEIDVLRRQAAQRFGGNEKQALELPRELFEEQAKRRVVVGLLLGEVIRTNELKADEERVKGLIEEMASAYEDPKEVIEFYSKNKELMDNMRNVALEEQAVEAVLAKAKVTEKETTFNELMNQQA
notes: Trigger Factor, E. coli, residues 1-432, TF(3A) background; not shown: His6, N-terminal, cleaved
B6: TF(3A) with mutation sets mutB + mutC (M374A, Y378A, V384A, F387A, M140E) (natural protein, E. coli, UniProt P0A850 1-432, looked up)
chain: B5 chain with M374A, Y378A, V384A, F387A
notes: Trigger Factor, E. coli, residues 1-432, TF(3A) background; also called mutC + mutB; not shown: His6, N-terminal, cleaved
B7: TF(3A) with mutation set mutB (M374A, Y378A, V384A, F387A) (natural protein, E. coli, UniProt P0A850 1-432, looked up)
chain: B5 chain with E140M, M374A, Y378A, V384A, F387A
notes: as for B5
B8: TF(3A) with mutation sets mutD + mutC (R316A, R321A, M140E) (natural protein, E. coli, UniProt P0A850 1-432, looked up)
chain: B5 chain with R316A, R321A
notes: Trigger Factor, E. coli, residues 1-432, TF(3A) background; also called mutC + mutD; not shown: His6, N-terminal, cleaved
B9: TF(3A) with mutation set mutD (R316A, R321A) (natural protein, E. coli, UniProt P0A850 1-432, looked up)
chain: B5 chain with E140M, R316A, R321A
notes: as for B5
B10: TF(3A) with mutation sets mutB + mutD (M374A, Y378A, V384A, F387A, R316A, R321A) (natural protein, E. coli, UniProt P0A850 1-432, looked up)
chain: B5 chain with E140M, R316A, R321A, M374A, Y378A, V384A, F387A
notes: as for B5
B11: TF(3A) variant TF(F44A, R45A, K46A) (natural protein, E. coli, UniProt P0A850 1-432, looked up)
chain: B5 chain with E140M
notes: not shown: His6, N-terminal, cleaved

How the values were obtained:
[1] = biological target: the molecule itself; test: SEC-MALS; sample buffer (20 mM K-phosphate pH 6.5, 100 mM KCl, 0.5 mM EDTA); 6 °C for the individual domains; concentration series fitted to a fast monomer–dimer equilibrium; dimer to monomers
[2] = biological target: the molecule itself; test: SEC-MALS; concentration series of full-length TF and full-length mutants alone, 26 °C, sample buffer (20 mM K-phosphate pH 6.5, 100 mM KCl, 0.5 mM EDTA); fit to a fast monomer-dimer equilibrium; dimer to monomers

Protein	Kd [1] [µM]	Kd [2] [µM]
B1	> 1000	
B2	> 5000	
B3	≥ 1500	
B4	> 1000	
B5		28
B6		> 1000
B7		> 1000
B8		260
B9		22
B10		> 1000
B11		1.1
